Assay results as given in paper PMC3841061.

Target: P2Y1R-i3-YFP-long2/tail-HT (human) (UniProt P47900)
Experiment: FRET or BRET

Sequence of UniProt P47900 (P47900 whole entry): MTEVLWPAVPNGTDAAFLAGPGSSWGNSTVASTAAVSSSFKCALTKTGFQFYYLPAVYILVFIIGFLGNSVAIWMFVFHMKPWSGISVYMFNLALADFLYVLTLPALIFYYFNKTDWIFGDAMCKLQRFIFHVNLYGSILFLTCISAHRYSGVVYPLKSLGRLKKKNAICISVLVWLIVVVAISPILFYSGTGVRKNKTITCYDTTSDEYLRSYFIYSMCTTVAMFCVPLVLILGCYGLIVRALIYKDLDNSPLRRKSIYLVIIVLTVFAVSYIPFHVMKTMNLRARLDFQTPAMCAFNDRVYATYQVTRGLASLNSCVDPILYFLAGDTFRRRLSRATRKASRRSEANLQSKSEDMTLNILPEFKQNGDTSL

Gαq-CFP (from UniProt P21279 1-359) (natural protein)
ΔnF/ICFP by ADPβS 10 μmol/L (agonist-induced increase in FRET): 0.014
